Target: S160 (Bacillus amyloliquefaciens, UniProt P00782, DEL180-188/E263S/G190A/G235S/G273S/G276A/I138L/K150N/M157F/N319G/N325S/Q313C/Q378E/S116A/S295P/T361A/Y211A/Y324L)
Experiment: inhibition of S160 by prodomain pR58
Format: biochemical

S160, sequence (P00782 other isoform, or with tags, fused parts or gaps with the stated changes): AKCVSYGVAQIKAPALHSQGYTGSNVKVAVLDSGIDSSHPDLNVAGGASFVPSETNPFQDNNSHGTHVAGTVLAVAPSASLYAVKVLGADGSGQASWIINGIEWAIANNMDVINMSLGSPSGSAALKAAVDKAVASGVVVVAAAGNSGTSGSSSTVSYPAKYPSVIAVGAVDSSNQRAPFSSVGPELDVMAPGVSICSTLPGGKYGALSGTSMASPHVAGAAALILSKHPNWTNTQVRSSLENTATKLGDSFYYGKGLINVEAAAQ

B1: pR58: version of pR8 with its last four amino acids (AHAY) replaced with FRAM (protein)
chain: AGKSNGEKKYIVGFKSGIKSCAKKQDVISEKGGKLQKCFKYVDAASATLNEKAVKELKKDPSVAYVEEDKVFRAM
modifications: pR58 (pR8FRAM) variant of SEQ ID NO 2
notes: version of pR8 with its last four amino acids (AHAY) replaced with FRAM
B1 was tested, and the Ki was roughly 0.03 nM.

Source: patent US7824885B2, “Engineered proteases for affinity purification and processing of fusion proteins” (University of Maryland, College Park, priority 2003, dated 2010)
